This passage reports abundance fitness results from the Human Domainome abundance scans (Beltran et al. 2025).

± gives the uncertainty stated by the source.

This data set is described as follows: abundance fitness (aPCA) (normalised: wild type 0, dead -1); higher = more abundant; growth selection in yeast, the domain comes from the species named. The conditions noted are these: Saccharomyces cerevisiae (strain ATCC 204508 / S288c).
In turn, “E3 ubiquitin-protein ligase RSP5 R346F, P39940” displayed an abundance fitness of -0.042 ± 0.069.

In turn, “E3 ubiquitin-protein ligase RSP5 R346G, P39940” displayed an abundance fitness of 0.016 ± 0.044. As for “E3 ubiquitin-protein ligase RSP5 R346H, P39940”, the figure is 0.289 ± 0.096; as for “E3 ubiquitin-protein ligase RSP5 R346K, P39940”, 0.192 ± 0.064. As for “E3 ubiquitin-protein ligase RSP5 R346L, P39940”, the figure is 0.078 ± 0.05; as for “E3 ubiquitin-protein ligase RSP5 R346M, P39940”, 0.222 ± 0.067; as for “E3 ubiquitin-protein ligase RSP5 R346N, P39940”, 0.185 ± 0.085. Under “E3 ubiquitin-protein ligase RSP5 R346P, P39940” stands -0.165 ± 0.049. In turn, “E3 ubiquitin-protein ligase RSP5 R346Q, P39940” registered an abundance fitness of 0.165 ± 0.066.

In turn, “E3 ubiquitin-protein ligase RSP5 R346S, P39940” came in with an abundance fitness of 0.15 ± 0.05. As for “E3 ubiquitin-protein ligase RSP5 R346T, P39940”, the figure is 0.094 ± 0.053.

“E3 ubiquitin-protein ligase RSP5 R346V, P39940” gave an abundance fitness of 0.056 ± 0.049. As for “E3 ubiquitin-protein ligase RSP5 R346W, P39940”, the figure is -0.017 ± 0.073. Under “E3 ubiquitin-protein ligase RSP5 R346Y, P39940” stands 0.068 ± 0.079; under “E3 ubiquitin-protein ligase RSP5 R355C, P39940”, -0.17 ± 0.052; under “E3 ubiquitin-protein ligase RSP5 R355D, P39940”, -0.462 ± 0.088. As for “E3 ubiquitin-protein ligase RSP5 R355E, P39940”, the figure is -0.159 ± 0.053; as for “E3 ubiquitin-protein ligase RSP5 R355F, P39940”, -0.057 ± 0.2.

“E3 ubiquitin-protein ligase RSP5 R355G, P39940” registered an abundance fitness of -0.186 ± 0.041. Take “E3 ubiquitin-protein ligase RSP5 R355H, P39940”: the abundance fitness was -0.101 ± 0.063. As for “E3 ubiquitin-protein ligase RSP5 R355I, P39940”, the figure is -0.35 ± 0.086; as for “E3 ubiquitin-protein ligase RSP5 R355K, P39940”, 0.033 ± 0.066. As for “E3 ubiquitin-protein ligase RSP5 R355L, P39940”, the figure is -0.192 ± 0.049; as for “E3 ubiquitin-protein ligase RSP5 R355M, P39940”, -0.065 ± 0.07; as for “E3 ubiquitin-protein ligase RSP5 R355N, P39940”, -0.008 ± 0.069. Under “E3 ubiquitin-protein ligase RSP5 R355P, P39940” stands -0.64 ± 0.064; under “E3 ubiquitin-protein ligase RSP5 R355Q, P39940”, -0.013 ± 0.069. The substance “E3 ubiquitin-protein ligase RSP5 R355T, P39940” came in with an abundance fitness of -0.257 ± 0.068. “E3 ubiquitin-protein ligase RSP5 R355V, P39940” had an abundance fitness of -0.425 ± 0.045. With “E3 ubiquitin-protein ligase RSP5 R363C, P39940”, the abundance fitness is -0.219 ± 0.068. As for “E3 ubiquitin-protein ligase RSP5 R363D, P39940”, the abundance fitness was -0.725 ± 0.067.

“E3 ubiquitin-protein ligase RSP5 R363E, P39940” returned an abundance fitness of -0.443 ± 0.057. As for “E3 ubiquitin-protein ligase RSP5 R363F, P39940”, the figure is -0.805 ± 0.11; as for “E3 ubiquitin-protein ligase RSP5 R363G, P39940”, -0.276 ± 0.041; as for “E3 ubiquitin-protein ligase RSP5 R363H, P39940”, -0.398 ± 0.066. As for “E3 ubiquitin-protein ligase RSP5 R363I, P39940”, the figure is -0.473 ± 0.061; as for “E3 ubiquitin-protein ligase RSP5 R363K, P39940”, -0.41 ± 0.057; as for “E3 ubiquitin-protein ligase RSP5 R363L, P39940”, -0.377 ± 0.047.

For the substance “E3 ubiquitin-protein ligase RSP5 R363M, P39940”, the abundance fitness is -0.233 ± 0.061. Turning to “E3 ubiquitin-protein ligase RSP5 R363N, P39940”, the abundance fitness is -0.357 ± 0.069. Under “E3 ubiquitin-protein ligase RSP5 R363Q, P39940” stands -0.367 ± 0.06; under “E3 ubiquitin-protein ligase RSP5 R363S, P39940”, -0.262 ± 0.049; under “E3 ubiquitin-protein ligase RSP5 R363T, P39940”, -0.256 ± 0.056.

In turn, “E3 ubiquitin-protein ligase RSP5 R363V, P39940” registered an abundance fitness of -0.437 ± 0.046.

As to “E3 ubiquitin-protein ligase RSP5 R363W, P39940”, the abundance fitness is -0.511 ± 0.06. Under “E3 ubiquitin-protein ligase RSP5 R363Y, P39940” stands -0.667 ± 0.08.

“E3 ubiquitin-protein ligase RSP5 R364A, P39940” displayed an abundance fitness of 0.113 ± 0.055.

As to “E3 ubiquitin-protein ligase RSP5 R364D, P39940”, the abundance fitness amounted to 0.126 ± 0.067. Under “E3 ubiquitin-protein ligase RSP5 R364E, P39940” stands 0.129 ± 0.052; under “E3 ubiquitin-protein ligase RSP5 R364H, P39940”, 0.163 ± 0.092; under “E3 ubiquitin-protein ligase RSP5 R364I, P39940”, -0.088 ± 0.11. As for “E3 ubiquitin-protein ligase RSP5 R364L, P39940”, the figure is 0.074 ± 0.043; as for “E3 ubiquitin-protein ligase RSP5 R364M, P39940”, 0.051 ± 0.059.

In the case of “E3 ubiquitin-protein ligase RSP5 R364P, P39940”, the abundance fitness is 0.072 ± 0.052. Under “E3 ubiquitin-protein ligase RSP5 R364Q, P39940” stands 0.066 ± 0.054; under “E3 ubiquitin-protein ligase RSP5 R364S, P39940”, 0.087 ± 0.05; under “E3 ubiquitin-protein ligase RSP5 R364T, P39940”, 0.077 ± 0.057. With “E3 ubiquitin-protein ligase RSP5 R364V, P39940”, the abundance fitness was 0.035 ± 0.049. Under “E3 ubiquitin-protein ligase RSP5 R364W, P39940” stands -0.072 ± 0.048. Under “E3 ubiquitin-protein ligase RSP5 R364Y, P39940” stands -0.026 ± 0.086.

Take “E3 ubiquitin-protein ligase RSP5 S328A, P39940”: the abundance fitness was -0.172 ± 0.046. As for “E3 ubiquitin-protein ligase RSP5 S328C, P39940”, the figure is 0.054 ± 0.079. Under “E3 ubiquitin-protein ligase RSP5 S328D, P39940” stands 0.126 ± 0.074; under “E3 ubiquitin-protein ligase RSP5 S328G, P39940”, -0.113 ± 0.042; under “E3 ubiquitin-protein ligase RSP5 S328H, P39940”, -0.014 ± 0.076. Under “E3 ubiquitin-protein ligase RSP5 S328K, P39940” stands 0.083 ± 0.055.

Substance “E3 ubiquitin-protein ligase RSP5 S328M, P39940” gave an abundance fitness of 0.099 ± 0.067. Under “E3 ubiquitin-protein ligase RSP5 S328N, P39940” stands 0.1 ± 0.071; under “E3 ubiquitin-protein ligase RSP5 S328P, P39940”, -0.025 ± 0.064; under “E3 ubiquitin-protein ligase RSP5 S328R, P39940”, -0.095 ± 0.044. “E3 ubiquitin-protein ligase RSP5 S328T, P39940” registered an abundance fitness of -0.018 ± 0.12. Under “E3 ubiquitin-protein ligase RSP5 S328V, P39940” stands -0.07 ± 0.055.

Substance “E3 ubiquitin-protein ligase RSP5 S328Y, P39940” came in with an abundance fitness of 0.036 ± 0.098. As for “E3 ubiquitin-protein ligase RSP5 S335A, P39940”, the figure is -0.063 ± 0.044; as for “E3 ubiquitin-protein ligase RSP5 S335C, P39940”, -0.147 ± 0.07; as for “E3 ubiquitin-protein ligase RSP5 S335D, P39940”, 0.205 ± 0.14. As for “E3 ubiquitin-protein ligase RSP5 S335E, P39940”, the figure is -0.031 ± 0.053. Under “E3 ubiquitin-protein ligase RSP5 S335F, P39940” stands -0.205 ± 0.11; under “E3 ubiquitin-protein ligase RSP5 S335G, P39940”, -0.108 ± 0.052; under “E3 ubiquitin-protein ligase RSP5 S335H, P39940”, -0.079 ± 0.066. For the substance “E3 ubiquitin-protein ligase RSP5 S335K, P39940”, the abundance fitness was -0.049 ± 0.045.

On to “E3 ubiquitin-protein ligase RSP5 S335L, P39940”, for which the abundance fitness was -0.202 ± 0.046. As for “E3 ubiquitin-protein ligase RSP5 S335M, P39940”, the figure is -0.086 ± 0.063. As for “E3 ubiquitin-protein ligase RSP5 S335N, P39940”, the figure is -0.015 ± 0.084.

The substance “E3 ubiquitin-protein ligase RSP5 S335P, P39940” showed an abundance fitness of 0.047 ± 0.38. Take “E3 ubiquitin-protein ligase RSP5 S335Q, P39940”: the abundance fitness was -0.094 ± 0.051. The substance “E3 ubiquitin-protein ligase RSP5 S335R, P39940” returned an abundance fitness of -0.129 ± 0.051. As for “E3 ubiquitin-protein ligase RSP5 S335T, P39940”, the figure is -0.247 ± 0.087. Under “E3 ubiquitin-protein ligase RSP5 S335V, P39940” stands -0.141 ± 0.051; under “E3 ubiquitin-protein ligase RSP5 S335W, P39940”, -0.278 ± 0.064. Under “E3 ubiquitin-protein ligase RSP5 S335Y, P39940” stands -0.33 ± 0.087.
